From patent publication US20220195008A1 (US Dept. of Health and Human Services, published 2022)

Legend:
[1] = target: MAGE-A12:170-178 in the context of HLA-Cw7 (subtype not stated at that place) (human); assay: cell-based or functional assay
[2] = target: MAGE-A3 168-176 peptide (…) in the context of HLA-A*01 (human); assay: cell-based or functional assay

minimum peptide concentration for recognition, relative to TCR 502 [1] | minimum peptide concentration for recognition, relative to TCR A10 [2] | Binder
100 fold (higher than for TCR 502) | – | anti-MAGE-A12 TCR FM8 (TCR, V domains shown) V domain 1: QTVTQSQPEMSVQEAETVTLSCTYDTSESDYYLFWYKQPPSRQMILVIRQEAYKQQNATENRFSVNFQKAAKSFSLKISDSQLGDAAMYFCAYRSAQGGSEKLVFGKGTKLTVNP V domain 2: ETGVTQTPRHLVMGMTNKKSLKCEQHLGHNAMYWYKQSAKKPLELMFVYSLEERVENNSVPSRFSPECPNSSHLFLHLHTLQPEDSALYLCASSQTTYYNEQFFGPGTRLTVLE
– | 10 fold (higher than for TCR A10) | anti-MAGE-A3 TCR 13-18 (TCR, V domains shown) V domain 1: QKEVEQDPGPLSVPEGAIVSLNCTYSNSAFQYFMWYRQYSRKGPELLMYTYSSGNKEDGRFTAQVDKSSKYISLFIRDSQPSDSATYLCAMRGAQKLVFGQGTRLTINP V domain 2: DAMVIQNPRYQVTQFGKPVTLSCSQTLNHNVMYWYQQKSSQAPKLLFHYYDKDFNNEADTPDNFQSRRPNTSFCFLDIRSPGLGDAAMYLCATSWDRGYEQYFGPGTRLTVTE
